Patent US20240270846A1 (published 2024)
Residue numbers refer to the chain shown, from its start. Names and notes keep the numbering of the source.

B1: CE115HA000 H chain altered form H35A (antibody, human IgG1, kappa, L234A L235A, N297A, name in Kabat numbering)
heavy: QVQLVESGGGVVQPGRSLRLSCAASGFTFSNAWMAWVRQAPGKGLEWVAQIKAKSNNYATYYAESVKGRFTISRDDSKNSLYLQMNSLKTEDTAVYYCRYVHYGAYYGVDAWGQGTTVTVSSASTKGPSVFPLAPSSKSTSGGTAALGCLVKDYFPEPVTVSWNSGALTSGVHTFPAVLQSSGLYSLSSVVTVPSSSLGTQTYICNVNHKPSNTKVDKKVEPKSCDKTHTCPPCPAPEAAGGPSVFLFPPKPKDTLMISRTPEVTCVVVDVSHEDPEVKFNWYVDGVEVHNAKTKPREEQYASTYRVVSVLTVLHQDWLNGKEYKCKVSNKALPAPIEKTISKAKGQPREPQVYTLPPSRCELTKNQVSLSCAVKGFYPSDIAVEWESNGQPENNYKTTPPVLDSDGSFFLVSKLTVDKSRWQQGNVFSCSVMHEALHNHYTQKSLSLSPDYKDDDDK
chain: EPKSSDKTHTCPPCPAPELLGGPSVFLFPPKPKDTLMISRTPEVTCVVVDVSHEDPEVKFNWYVDGVEVHNAKTKPREEQYNSTYRVVSVLTVLHQDWLNGKEYKCKVSNKALPAPIEKTISKAKGQPREPQVCTLPPSRDELTKNQVSLWCLVKGFYPSDIAVEWESNGQPENNYKTTPPVLDSDGSFFLYSKLTVDKSRWQQGNVFSCSVMHEALHNRYTQKSLSLSP
light: DIVMTQSPLSLPVTPGEPASISCRSSQSLVHSNRNTYLHWYQQKPGQAPRLLIYKVSNRFSGVPDRFSGSGSGTDFTLKISRVEAEDVGVYYCGQGTQVPYTFGQGTKLEIKRTVAAPSVFIFPPSDEQLKSGTASVVCLLNNFYPREAKVQWKVDNALQSGNSQESVTEQDSKDSTYSLSSTLTLSKADYEKHKVYACEVTHQGLSSPVTKSFNRGEC
notes: one-arm antibody
B2: CE115HA000 H chain altered form A52aG (antibody, human IgG1, kappa, L234A L235A, N297A, name in Kabat numbering)
heavy: B1 heavy with A35H, A53G
chain: B1 chain
light: B1 light
notes: one-arm antibody
B3: CE115HA000 H chain altered form A52aD (antibody, human IgG1, kappa, L234A L235A, N297A, name in Kabat numbering)
heavy: B1 heavy with A35H, A53D
chain: B1 chain
light: B1 light
notes: one-arm antibody
B4: CE115HA000 H chain altered form A52aP (antibody, human IgG1, kappa, L234A L235A, N297A, name in Kabat numbering)
heavy: B1 heavy with A35H, A53P
chain: B1 chain
light: B1 light
notes: one-arm antibody
B5: CE115HA000 H chain altered form A52aV (antibody, human IgG1, kappa, L234A L235A, N297A, name in Kabat numbering)
heavy: B1 heavy with A35H, A53V
chain: B1 chain
light: B1 light
notes: one-arm antibody
B6: CE115HA000 H chain altered form A52aS (antibody, human IgG1, kappa, L234A L235A, N297A, name in Kabat numbering)
heavy: B1 heavy with A35H, A53S
chain: B1 chain
light: B1 light
notes: one-arm antibody
B7: CE115HA000 H chain altered form A56K (antibody, human IgG1, kappa, L234A L235A, N297A, name in Kabat numbering)
heavy: B1 heavy with A35H, A59K
chain: B1 chain
light: B1 light
notes: one-arm antibody
B8: CE115HA000 H chain altered form A32Y (antibody, human IgG1, kappa, L234A L235A, N297A, name in Kabat numbering)
heavy: B1 heavy with A32Y, A35H
chain: B1 chain
light: B1 light
notes: one-arm antibody
B9: CE115HA000 H chain altered form A52aY (antibody, human IgG1, kappa, L234A L235A, N297A, name in Kabat numbering)
heavy: B1 heavy with A35H, A53Y
chain: B1 chain
light: B1 light
notes: one-arm antibody
B10: CE115HA000 H chain altered form A52aE (antibody, human IgG1, kappa, L234A L235A, N297A, name in Kabat numbering)
heavy: B1 heavy with A35H, A53E
chain: B1 chain
light: B1 light
notes: one-arm antibody
B11: CE115HA000 H chain altered form A56G (antibody, human IgG1, kappa, L234A L235A, N297A, name in Kabat numbering)
heavy: B1 heavy with A35H, A59G
chain: B1 chain
light: B1 light
notes: one-arm antibody
B12: CE115HA000 H chain altered form A56D (antibody, human IgG1, kappa, L234A L235A, N297A, name in Kabat numbering)
heavy: B1 heavy with A35H, A59D
chain: B1 chain
light: B1 light
notes: one-arm antibody
B13: GLS3000 S27eR one-arm antibody (H chain CE115HA000) (antibody, human IgG1, kappa, L234A L235A, N297A, name in Kabat numbering)
heavy: B1 heavy with A35H
chain: B1 chain
light: B1 light with S32R
notes: one-arm antibody
B14: GLS3000 S56A one-arm antibody (H chain CE115HA000) (antibody, human IgG1, kappa, L234A L235A, N297A, name in Kabat numbering)
heavy: B1 heavy with A35H
chain: B1 chain
light: B1 light with S61A
notes: one-arm antibody
B15: GLS3000 V51D one-arm antibody (H chain CE115HA000) (antibody, human IgG1, kappa, L234A L235A, N297A, name in Kabat numbering)
heavy: B1 heavy with A35H
chain: B1 chain
light: B1 light with V56D
notes: one-arm antibody
B16: GLS3000 V27cI one-arm antibody (H chain CE115HA000) (antibody, human IgG1, kappa, L234A L235A, N297A, name in Kabat numbering)
heavy: B1 heavy with A35H
chain: B1 chain
light: B1 light with V30I
notes: one-arm antibody
B17: GLS3000 S52A one-arm antibody (H chain CE115HA000) (antibody, human IgG1, kappa, L234A L235A, N297A, name in Kabat numbering)
heavy: B1 heavy with A35H
chain: B1 chain
light: B1 light with S57A
notes: one-arm antibody
B18: GLS3000 S52D one-arm antibody (H chain CE115HA000) (antibody, human IgG1, kappa, L234A L235A, N297A, name in Kabat numbering)
heavy: B1 heavy with A35H
chain: B1 chain
light: B1 light with S57D
notes: one-arm antibody
B19: GLS3000 S56D one-arm antibody (H chain CE115HA000) (antibody, human IgG1, kappa, L234A L235A, N297A, name in Kabat numbering)
heavy: B1 heavy with A35H
chain: B1 chain
light: B1 light with S61D
notes: one-arm antibody
B20: GLS3000 V27cY one-arm antibody (H chain CE115HA000) (antibody, human IgG1, kappa, L234A L235A, N297A, name in Kabat numbering)
heavy: B1 heavy with A35H
chain: B1 chain
light: B1 light with V30Y
notes: one-arm antibody
B21: GLS3000 S27eV one-arm antibody (H chain CE115HA000) (antibody, human IgG1, kappa, L234A L235A, N297A, name in Kabat numbering)
heavy: B1 heavy with A35H
chain: B1 chain
light: B1 light with S32V
notes: one-arm antibody
B22: GLS3000 T31D one-arm antibody (H chain CE115HA000) (antibody, human IgG1, kappa, L234A L235A, N297A, name in Kabat numbering)
heavy: B1 heavy with A35H
chain: B1 chain
light: B1 light with T36D
notes: one-arm antibody
B23: GLS3000 V27cE one-arm antibody (H chain CE115HA000) (antibody, human IgG1, kappa, L234A L235A, N297A, name in Kabat numbering)
heavy: B1 heavy with A35H
chain: B1 chain
light: B1 light with V30E
notes: one-arm antibody
B24: GLS3000 V27cS one-arm antibody (H chain CE115HA000) (antibody, human IgG1, kappa, L234A L235A, N297A, name in Kabat numbering)
heavy: B1 heavy with A35H
chain: B1 chain
light: B1 light with V30S
notes: one-arm antibody
B25: GLS3000 V27cD one-arm antibody (H chain CE115HA000) (antibody, human IgG1, kappa, L234A L235A, N297A, name in Kabat numbering)
heavy: B1 heavy with A35H
chain: B1 chain
light: B1 light with V30D
notes: one-arm antibody
B26: GLS3000 S27eW one-arm antibody (H chain CE115HA000) (antibody, human IgG1, kappa, L234A L235A, N297A, name in Kabat numbering)
heavy: B1 heavy with A35H
chain: B1 chain
light: B1 light with S32W
notes: one-arm antibody
B27: GLS3000 V27cL one-arm antibody (H chain CE115HA000) (antibody, human IgG1, kappa, L234A L235A, N297A, name in Kabat numbering)
heavy: B1 heavy with A35H
chain: B1 chain
light: B1 light with V30L
notes: one-arm antibody
B28: GLS3000 S27eY one-arm antibody (H chain CE115HA000) (antibody, human IgG1, kappa, L234A L235A, N297A, name in Kabat numbering)
heavy: B1 heavy with A35H
chain: B1 chain
light: B1 light with S32Y
notes: one-arm antibody
B29: GLS3000 S27eT one-arm antibody (H chain CE115HA000) (antibody, human IgG1, kappa, L234A L235A, N297A, name in Kabat numbering)
heavy: B1 heavy with A35H
chain: B1 chain
light: B1 light with S32T
notes: one-arm antibody
B30: GLS3000 Y32D one-arm antibody (H chain CE115HA000) (antibody, human IgG1, kappa, L234A L235A, N297A, name in Kabat numbering)
heavy: B1 heavy with A35H
chain: B1 chain
light: B1 light with Y37D
notes: one-arm antibody
B31: GLS3000 V27cP one-arm antibody (H chain CE115HA000) (antibody, human IgG1, kappa, L234A L235A, N297A, name in Kabat numbering)
heavy: B1 heavy with A35H
chain: B1 chain
light: B1 light with V30P
notes: one-arm antibody
B32: GLS3000 Y32A one-arm antibody (H chain CE115HA000) (antibody, human IgG1, kappa, L234A L235A, N297A, name in Kabat numbering)
heavy: B1 heavy with A35H
chain: B1 chain
light: B1 light with Y37A
notes: one-arm antibody

Each binder was assayed against T1, CD3 epsilon homodimer protein (UniProt P07766 23-126) (assay: SPR Biacore T200, CD3 epsilon homodimer on chip, antibody as analyte;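 further: homodimer amine-coupled to a CM4 sensor chip, run at 25 °C in HBS-EP+ buffer, with kinetic parameters derived in Biacore T200 Evaluation Software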).
T1 construct: also called CD3 (CD3 epsilon)
T1 sequence (P07766 23-126): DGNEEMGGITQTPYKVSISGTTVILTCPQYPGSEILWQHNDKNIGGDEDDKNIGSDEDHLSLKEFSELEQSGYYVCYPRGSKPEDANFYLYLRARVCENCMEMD
Description: An appropriate amount of CD3 epsilon homodimer protein was immobilized onto Sensor chip CM4 (GE Healthcare Japan Corp.) by the amine coupling method. Then, the antibody having an appropriate concentration was injected thereto as an analyte and allowed to interact with the CD3 epsilon homodimer protein on the sensor chip. Then, the sensor chip was regenerated by the injection of 10 mmol/L glycine-HCl (pH 1.5). The assay was conducted at 25 degrees C., and HBS-EP+(GE Healthcare Japan Corp.) was used as a running buffer. […] Each parameter was calculated using Biacore T200 Evaluation Software (GE Healthcare Japan Corp.).
Specifically, when the amount of the antibody comprising CE115HA000 bound was defined as X and the amount of the H chain one-amino acid altered form bound was defined as Y, a value of Z (ratio of amounts bound)=Y/X was used.

KD ratio (KD of CE115HA000 / KD of altered form)	Binder
25	B1
0.61	B2
1.35	B3
5	B4
0.95	B5
0.82	B6
1.32	B7
2.11	B8
7.71	B9
0.89	B10
0.59	B11
0.71	B12

The binders below were run against T2, CD3 epsilon homodimer protein (UniProt P07766 23-126) (assay: SPR, CD3e homodimer on chip;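 further: surface plasmon resonance at 25 degrees C, antibodies flowed as analyte over CD3 epsilon homodimer amine-coupled to a CM4 chip, running buffer HBS-EP+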).
T2 construct: also called CD3 (CD3 epsilon)
T2 sequence (P07766 23-126): as above

ratio of amounts bound (altered form / unaltered GLS3000 antibody)	Binder
1.58	B13
1.16	B14
0.33	B15
0.96	B16
0.93	B17
0.63	B18
0.77	B19
0.77	B20
1.08	B21
0.23	B22
0.61	B23
0.51	B24
0.32	B25
1.55	B26
0.84	B27
1.2	B28
0.97	B29
0.23	B30
0.3	B31
0.24	B32
